Drawing on patent publication US20170015742A1 (published 2017), this text covers Kd and kon for four molecules.

One assay concerns the target T1, VEGF-A (human, UniProt P15692 207-395).
T1 construct: also called hVEGF165
Description: Biacore SPR; DVD-Ig captured on anti-human Fc, antigen injected. On the procedure: (§1) For example, approximately 9000 RU of goat anti-human Fc specific polyclonal antibody (Thermo Fisher Scientific Inc., Rockford, Ill.) diluted in 10 mM sodium acetate (pH 4.5) is directly immobilized across a CM5 research grade biosensor chip using a standard amine coupling kit according to manufacturer's instructions and procedures at 25 μg/ml. Unreacted moieties on the biosensor surface were blocked with ethanolamine. For kinetic analysis, rate equations derived from the 1:1 Langmuir binding model were fitted simultaneously to multiple antigen injections (using global fit analysis) with the use of Scrubber 2 (BioLogic Software), Biacore Biaevaluation 4.0.1 software or Biacore T100 Evaluation software. Purified antibodies or DVD-Ig molecules were diluted in running buffer for capture across goat anti-human Fc reaction surfaces. Antibodies or DVD-Ig molecules to be captured as a ligand (1 μg/ml) were injected over reaction matrices at a flow rate of 10 μl/minute. During the assay, all measurements were referenced against the capture surface alone (i.e., with no captured antibody or DVD-Ig molecule). […] The equilibrium dissociation constant KD (M) of the reaction between antibodies and the target antigen was then calculated from the kinetic rate constants by the following formula: KD=Koff/Kₒₙ. Binding was recorded as a function of time and kinetic rate constants were calculated.
A general note: Surface plasmon resonance follows binding to a sensor surface in real time, without labels.

The target in another assay is T2, PDGF-BB (human, UniProt P01127 82-190, limits assumed).
T2 construct: also called human PDGF-BB; hPDGF-BB
Described as above. Here is the method:
as §1

T1 sequence (P15692 other isoform, or with tags, fused parts or gaps limits assumed): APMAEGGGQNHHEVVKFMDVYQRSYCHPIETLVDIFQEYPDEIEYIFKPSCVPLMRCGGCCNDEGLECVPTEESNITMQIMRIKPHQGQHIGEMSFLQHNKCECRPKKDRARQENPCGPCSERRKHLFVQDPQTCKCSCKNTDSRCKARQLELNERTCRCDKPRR
T2 sequence (P01127 82-190 limits assumed): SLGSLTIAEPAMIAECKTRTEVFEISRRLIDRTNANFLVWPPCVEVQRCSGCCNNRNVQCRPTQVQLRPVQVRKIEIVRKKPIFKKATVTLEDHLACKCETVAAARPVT

B1: CL-34565_GS_CL-33675 (PR-1613183) (bispecific antibody, human IgG1, kappa, L234A L235A)
heavy: EVQLVQSGSELKKPGASVKVSCKASGYTFTDYGMYWVRQAPGQGLEWMGWIDTETGDPTYADDFKGRFVFSLDTSVSTAYLQISSLKAEDTAVYYCARTNYYYRNYMFYFDYWGQGTMVTVSSGGGGSGGGGSEVTLRESGPALVKPTQTLTLTCTFSGFSLSTYGMGVGWIRQPPGKALEWLANIWWDDDKYYNPSLKNRLTISKDTSKNQVVLTMTNMDPVDTATYYCARIESSGPKYSFDYWGQGTMVTVSSASTKGPSVFPLAPSSKSTSGGTAALGCLVKDYFPEPVTVSWNSGALTSGVHTFPAVLQSSGLYSLSSVVTVPSSSLGTQTYICNVNHKPSNTKVDKKVEPKSCDKTHTCPPCPAPEAAGGPSVFLFPPKPKDTLMISRTPEVTCVVVDVSHEDPEVKFNWYVDGVEVHNAKTKPREEQYNSTYRVVSVLTVLHQDWLNGKEYKCKVSNKALPAPIEKTISKAKGQPREPQVYTLPPSREEMTKNQVSLTCLVKGFYPSDIAVEWESNGQPENNYKTTPPVLDSDGSFFLYSKLTVDKSRWQQGNVFSCSVMHEALHNAYTQKSLSLSPGK
light: EIVLTQSPATLSLSPGERATLFCRASQSVSNHMHWYQQKPGQAPRLLIYGASILESGVPARFSGSGSGTDFTLTISSLEPEDFAVYYCQQSWYDPITFGQGTKLEIKGGSGGGGSGGEIVLTQSPGTLSLSPGERATLSCRASSGSIWYSFVSWYQQKPGQAPRLLIYADDQRASGIPDRFSGSGSGTDFTLTISRLEPEDFAVYYCQSYGINIDVVFGGGTKVEIKRTVAAPSVFIFPPSDEQLKSGTASVVCLLNNFYPREAKVQWKVDNALQSGNSQESVTEQDSKDSTYSLSSTLTLSKADYEKHKVYACEVTHQGLSSPVTKSFNRGEC
notes: DVD-Ig: outer CL-34565 (VEGF), inner CL-33675 (PDGF), linkers GS-H10/GS-L10(dR); Human IgG1 L234A, L235A, H435A with kappa
In general, Kd refers to a measure of binding affinity in units of concentration. Read a high Kd as a looser complex. What is called kon is a measure of how fast the partners come together. Low values mean slow association, high ones fast association. Consider B1, for which, in the assay with VEGF-A, the Kd was 1.7 pM and the kon was determined as 1.2e+07 M⁻¹ s⁻¹. Further, in the assay with PDGF-BB, the Kd was 0.19 pM and the kon was determined as 6e+07 M⁻¹ s⁻¹.

B2: CL-34565_GS_9E8.4 (PR-1613184) (bispecific antibody, human IgG1, kappa, L234A L235A)
heavy: EVQLVQSGSELKKPGASVKVSCKASGYTFTDYGMYWVRQAPGQGLEWMGWIDTETGDPTYADDFKGRFVFSLDTSVSTAYLQISSLKAEDTAVYYCARTNYYYRNYMFYFDYWGQGTMVTVSSGGGGSGGGGSEVTLRESGPALVKPTQTLTLTCTFSGFSLSTYGMGVGWIRQPPGKALEWLANIWWDDDKYYNPSLKNRLTISKDTSKNQVVLTMTNMDPVDTATYYCARIESIGTTYSFDYWGQGTMVTVSSASTKGPSVFPLAPSSKSTSGGTAALGCLVKDYFPEPVTVSWNSGALTSGVHTFPAVLQSSGLYSLSSVVTVPSSSLGTQTYICNVNHKPSNTKVDKKVEPKSCDKTHTCPPCPAPEAAGGPSVFLFPPKPKDTLMISRTPEVTCVVVDVSHEDPEVKFNWYVDGVEVHNAKTKPREEQYNSTYRVVSVLTVLHQDWLNGKEYKCKVSNKALPAPIEKTISKAKGQPREPQVYTLPPSREEMTKNQVSLTCLVKGFYPSDIAVEWESNGQPENNYKTTPPVLDSDGSFFLYSKLTVDKSRWQQGNVFSCSVMHEALHNAYTQKSLSLSPGK
light: EIVLTQSPATLSLSPGERATLFCRASQSVSNHMHWYQQKPGQAPRLLIYGASILESGVPARFSGSGSGTDFTLTISSLEPEDFAVYYCQQSWYDPITFGQGTKLEIKGGSGGGGSGGEFVLTQSPGTLSLSPGERATLSCERSSGDIGDSYVSWYQQKPGQAPRLVIYADDQRPSGIPDRFSGSGSGTDFTLTISRLEPEDFAVYYCQSYDINIDIVFGGGTKVEIKRTVAAPSVFIFPPSDEQLKSGTASVVCLLNNFYPREAKVQWKVDNALQSGNSQESVTEQDSKDSTYSLSSTLTLSKADYEKHKVYACEVTHQGLSSPVTKSFNRGEC
notes: DVD-Ig: outer CL-34565 (VEGF), inner hBDI-9E8.4 (PDGF), linkers GS-H10/GS-L10(dR); Human IgG1 L234A, L235A, H435A with kappa
In the assay with VEGF-A, B2 came in with a Kd of 1.1 pM and a kon of 1.5e+07 M⁻¹ s⁻¹. In the assay with PDGF-BB, the affinity, expressed as Kd, was 5.4 pM and the on-rate constant (kon) is 3.5e+07 M⁻¹ s⁻¹.

B3: 9E8.4E-GS-9A8.12 (PR-1578137) (bispecific antibody, human IgG1, kappa, L234A L235A)
heavy: EVTLRESGPALVKPTQTLTLTCTFSGFSLSTYGMGVGWIRQPPGKALEWLANIWWDDDKYYNPSLKNRLTISKDTSKNQVVLTMTNMDPVDTATYYCARIESIGTTYSFDYWGQGTMVTVSSGGGGSGGGGSEVQLVQSGAEVKKPGASVKVSCKASGYTFTNYGMYWVRQAPGQGLEWMGWINTETGKPIYADDFKGRVTMTTDTSTSTAYMELRSLRSDDTAVYYCARVDYDGSFWFAYWGQGTLVTVSSASTKGPSVFPLAPSSKSTSGGTAALGCLVKDYFPEPVTVSWNSGALTSGVHTFPAVLQSSGLYSLSSVVTVPSSSLGTQTYICNVNHKPSNTKVDKKVEPKSCDKTHTCPPCPAPEAAGGPSVFLFPPKPKDTLMISRTPEVTCVVVDVSHEDPEVKFNWYVDGVEVHNAKTKPREEQYNSTYRVVSVLTVLHQDWLNGKEYKCKVSNKALPAPIEKTISKAKGQPREPQVYTLPPSREEMTKNQVSLTCLVKGFYPSDIAVEWESNGQPENNYKTTPPVLDSDGSFFLYSKLTVDKSRWQQGNVFSCSVMHEALHNAYTQKSLSLSPGK
light: EFVLTQSPGTLSLSPGERATLSCERSSGDIGESYVSWYQQKPGQAPRLVIYADDQRPSGIPDRFSGSGSGTDFTLTISRLEPEDFAVYYCQSYDINIDIVFGGGTKVEIKRGGSGGGGSGDTQLTQSPSSLSASVGDRVTITCRASESVSTVIHWYQQKPGKQPKLLIHGASNLESGVPSRFSGSGSGTDFTLTISSLQPEDFATYFCQQHWNDPPTFGQGTKLEIKRTVAAPSVFIFPPSDEQLKSGTASVVCLLNNFYPREAKVQWKVDNALQSGNSQESVTEQDSKDSTYSLSSTLTLSKADYEKHKVYACEVTHQGLSSPVTKSFNRGEC
notes: DVD-Ig: outer hBDI-9E8.4E (PDGF), inner hBEW-9A8.12 (VEGF), linkers GS-H10/GS-L10; Human IgG1 L234A, L235A, H435A with kappa
As to B3, the Kd in the assay with VEGF-A was determined as 380 pM; with PDGF-BB it was 8.8 pM. The kon is 470000 M⁻¹ s⁻¹ with VEGF-A and 5e+07 M⁻¹ s⁻¹ with PDGF-BB.

B4: CL-34565_GS_3E2.1 (PR-1613185) (bispecific antibody, human IgG1, kappa, L234A L235A)
heavy: EVQLVQSGSELKKPGASVKVSCKASGYTFTDYGMYWVRQAPGQGLEWMGWIDTETGDPTYADDFKGRFVFSLDTSVSTAYLQISSLKAEDTAVYYCARTNYYYRNYMFYFDYWGQGTMVTVSSGGGGSGGGGSEVQLVQSGAEVKKPGSSVKVSCKASGYTFTESYMYWVKQAPGQGLELIGRIDPEDGSTDYVEKFKNKATLTADKSTSTAYMELSSLRSEDTAVYFCARFGARSYFYPMDAWGQGTTVTVSSASTKGPSVFPLAPSSKSTSGGTAALGCLVKDYFPEPVTVSWNSGALTSGVHTFPAVLQSSGLYSLSSVVTVPSSSLGTQTYICNVNHKPSNTKVDKKVEPKSCDKTHTCPPCPAPEAAGGPSVFLFPPKPKDTLMISRTPEVTCVVVDVSHEDPEVKFNWYVDGVEVHNAKTKPREEQYNSTYRVVSVLTVLHQDWLNGKEYKCKVSNKALPAPIEKTISKAKGQPREPQVYTLPPSREEMTKNQVSLTCLVKGFYPSDIAVEWESNGQPENNYKTTPPVLDSDGSFFLYSKLTVDKSRWQQGNVFSCSVMHEALHNAYTQKSLSLSPGK
light: EIVLTQSPATLSLSPGERATLFCRASQSVSNHMHWYQQKPGQAPRLLIYGASILESGVPARFSGSGSGTDFTLTISSLEPEDFAVYYCQQSWYDPITFGQGTKLEIKGGSGGGGSGGETVLTQSPATLSLSPGERATLSCRASESVSTLMHWYQQKPGQQPRLLIYGASNLESGVPARFSGSGSGTDFTLTISSLEPEDFAVYFCQQSWNDPWTFGGGTKVEIKRTVAAPSVFIFPPSDEQLKSGTASVVCLLNNFYPREAKVQWKVDNALQSGNSQESVTEQDSKDSTYSLSSTLTLSKADYEKHKVYACEVTHQGLSSPVTKSFNRGEC
notes: DVD-Ig: outer CL-34565 (VEGF), inner hBFU-3E2.1 (PDGF), linkers GS-H10/GS-L10(dR); Human IgG1 L234A, L235A, H435A with kappa
B4: in the assay with VEGF-A, the Kd was 1.4 pM and the kon stood at 1.2e+07 M⁻¹ s⁻¹. In the assay with PDGF-BB, this molecule registered a Kd of 12 pM and a kon of 4.5e+07 M⁻¹ s⁻¹.
